According to patent US20240287161A1:

Tests used:
[1] = target: SARS-CoV-2 spike receptor-binding domain (RBD, amino acids 322 to 536), histidine-tagged (Example 2) (SARS-CoV-2) (UniProt P0DTC2)
[2] = target: Authentic CoV2 (SARS-CoV-2 JPN/TY/WK-521)
[3] = target: SARS-CoV2 S protein on VSV pseudovirus (SARS-CoV-2) (UniProt P0DTC2)

Substance	EC50 [1] [µg/mL]	IC50, authentic virus neutralization [2] [µg/mL]	IC50, pseudovirus neutralization [3] [µg/mL]
REGN10987 (antibody)	3.3	0.134	0.0416
REGN10933 (antibody)	0.194	0.0381	0.0089
